What was measured:
[1] = tested on: tumor; details: single agent or in combination with anti-PD-1 ab, mouse models; cited from earlier work
[2] = tested on: mouse bone-marrow-derived macrophages (BMDM); assay: uptake of pHrodo-labeled apoptotic thymocytes by BMDM; format: cell-based; details: pHrodo-labeled apoptotic thymocytes as target cells
[3] = tested on: Ccn1; assay: Ccn1 mRNA level in cells; format: cell-based, mouse
[4] = tested on: CD8+ T cells; assay: CD8+ T cells co-cultured with MC38 CCM-educated MQ or DC; format: cell-based, mouse
[5] = tested on: BMDM; assay: recombinant CCN1 treatment of BMDM, CD206+ frequency; format: cell-based, mouse
[6] = tested on: mouse peritoneal MQ; details: 100 µg/mL CCN1, direct exposure; cited from earlier work

In the case of CCOc1ccn(-c2ccc(F)cc2)c(=O)c1C(=O)Nc1ccc(Oc2ccnc(N)c2Cl)c(F)c1 [BMS-777607], the tumor-growth-inhibitory effects [1] is given as “excellent tumor-growth-inhibitory effects”.

For COc1cc2nccc(Oc3ccc(NC(=O)c4cn(C(C)C)c(=O)n(-c5ccc(F)cc5)c4=O)cc3F)c2cc1OC [RXDX-106], the tumor-growth-inhibitory effects [1] is given as “excellent tumor-growth-inhibitory effects”.

For CCCCNc1ncc(-c2ccc(CN3CCOCC3)cn2)c(NC2CCC(O)CC2)n1 (stereo not drawn) [UNC2250], the “ability of phagocytosis in BMDM” value [2] was “significantly decreased” and the “mRNA level of Ccn1 in BMDM primed with MC38 culture media” value [3] was “could not decrease”.

B1: CCN1: recombinant CCN1, a secreted matricellular protein, added to macrophages (protein, UniProt O00622 25-381, looked up)
CCN family member 1: TCPAACHCPLEAPKCAPGVGLVRDGCGCCKVCAKQLNEDCSKTQPCDHTKGLECNFGASSTALKGICRAQSEGRPCEYNSRIYQNGESFQPNCKHQCTCIDGAVGCIPLCPQELSLPNLGCPNPRLVKVTGQCCEEWVCDEDSIKDPMEDQDGLLGKELGFDASEVELTRNNELIAVGKGSSLKRLPVFGMEPRILYNPLQGQKCIVQTTSWSQCSKTCGTGISTRVTNDNPECRLVKETRICEVRPCGQPVYSSLKKGKKCSKTKKSPEPVRFTYAGCLSVKKYRPKYCGSCVDGRCCTPQLTRTVKMRFRCEDGETFSKNVMMIQSCKCNYNCPHANEAAFPFYRLFNDIHKFRD
For B1, the “effect of CCN1 addition on KRCT87-mediated immune-boosting effects” value ([4]; CCN1 addition to DC) was “could not nullify”, the “effect of CCN1 addition on KRCT87-elevated granzyme B, IFN-γ, TNF-α production” value ([4]; MQ educated by MC38-CCM) was “completely reversed” and the “frequency of M2-skewed MQ” value ([5]; 10–500 ng/mL CCN1) was “increases”. For the same molecule, the “frequency of CD206+ BMDM” value ([5]; recombinant CCN1, concentration-dependent and in presence of MC38 CCM) was “increased” and the “differentiation into M1-skewing MQ producing pro-inflammatory cytokines” value [6] was “promotes differentiation into M1-skewing MQ”.

— paper PMC9884874 (Journal for Immunotherapy of Cancer, 2023)
